{
  "source": "the RNAGym collection of RNA variant scans (doi:10.1073/pnas.2313332121)",
  "parents": {"B1": {"name": "TPR 5TU (parent)", "chain": "GGAUCUUCUCGAUCUAACAAAAAAGACAAAUCUGCCACAAAGCUUGAGAGCAUCUUCGGAUGCAGAGGCGGCAGCCUUCGGUGGCGCGAUAGCGCCAACGUUCUCAACUAUGACACGCAAAACGCGUGCUCCGUUGAAUGGAGUUUAUCAUG"}},
  "note": "Fewer inactive variants are shown than the library holds.",
  "data": [
    {"variants_of": "B1", "experiment": "polymerase ribozyme fitness, log enrichment relative to wild type (log ratio); higher = more active; in vitro selection for triplet polymerase activity", "how_it_was_run": "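Frozen incubation at −7 °C formed the core of a single, triplicate in vitro selection round applied to PCR-built, transcribed mutant libraries of each subunit of a heterodimeric triplet polymerase ribozyme. Extended constructs were gel-excised, captured with streptavidin beads and amplified by RT-PCR, and input and output libraries were Illumina-sequenced with a filter of ≥10 input reads and ≥1 read per output. Fitness is the logarithm of genotype enrichment relative to wild-type enrichment, with inverse-variance-weighted replicate averaging, and the logarithm is base 2.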", "values": [
      {"variant": "C57U G59A G67A C93G", "polymerase ribozyme fitness (log ratio)": "≤ -4.2"},
      {"variant": "C57U C63A", "polymerase ribozyme fitness (log ratio)": 0.923},
      {"variant": "C57U U82G", "polymerase ribozyme fitness (log ratio)": 0.0517},
      {"variant": "G58A G94A A106C", "polymerase ribozyme fitness (log ratio)": -0.37},
      {"variant": "G58C G65C A66C U77G U102A C132U", "polymerase ribozyme fitness (log ratio)": "≤ -4.2"},
      {"variant": "G58A A73G C85G A98C", "polymerase ribozyme fitness (log ratio)": -1.02},
      {"variant": "G58A A73U", "polymerase ribozyme fitness (log ratio)": -1.65},
      {"variant": "G58C A60G C63U G84A", "polymerase ribozyme fitness (log ratio)": 0.439},
      {"variant": "C57G C123G", "polymerase ribozyme fitness (log ratio)": -0.87},
      {"variant": "C57G G83U A147U", "polymerase ribozyme fitness (log ratio)": 0.219},
      {"variant": "G58U G141C A147U", "polymerase ribozyme fitness (log ratio)": -0.128},
      {"variant": "C57U A64U G92A A138U U145G A150C", "polymerase ribozyme fitness (log ratio)": "≤ -4.2"},
      {"variant": "G58C C96U G128U", "polymerase ribozyme fitness (log ratio)": -3.69},
      {"variant": "C57U U145A", "polymerase ribozyme fitness (log ratio)": 0.046},
      {"variant": "C57U U145G", "polymerase ribozyme fitness (log ratio)": -0.309},
      {"variant": "C57U G84A C93U", "polymerase ribozyme fitness (log ratio)": -2.9},
      {"variant": "C57U G59A A73G C79U", "polymerase ribozyme fitness (log ratio)": "≤ -4.2"},
      {"variant": "G58U C123U G124C", "polymerase ribozyme fitness (log ratio)": -0.593},
      {"variant": "C57U A60G G133C G152U", "polymerase ribozyme fitness (log ratio)": -3.31},
      {"variant": "G58C C76A G86A A147U", "polymerase ribozyme fitness (log ratio)": -2.24},
      {"variant": "C57G G59U A60G C85G A89U A97U G128A U148A", "polymerase ribozyme fitness (log ratio)": "≤ -4.2"},
      {"variant": "G58C A142U U146A", "polymerase ribozyme fitness (log ratio)": -1.03},
      {"variant": "G58C C93U A110G", "polymerase ribozyme fitness (log ratio)": -3.82},
      {"variant": "G58U C75G G81A G92U A142G U144A", "polymerase ribozyme fitness (log ratio)": "≤ -4.2"},
      {"variant": "G58A U82G C96A A142G A147G", "polymerase ribozyme fitness (log ratio)": -3.38},
      {"variant": "C57U G84U", "polymerase ribozyme fitness (log ratio)": -2.27},
      {"variant": "G58C U134G A150U", "polymerase ribozyme fitness (log ratio)": -3.62},
      {"variant": "G58A A60C G74A C85G C116G C123U C149G", "polymerase ribozyme fitness (log ratio)": "≤ -4.2"},
      {"variant": "C57U G62A C63U C87A G141A C149U", "polymerase ribozyme fitness (log ratio)": "≤ -4.2"},
      {"variant": "C57U C87U C93A A107C", "polymerase ribozyme fitness (log ratio)": "≤ -4.2"},
      {"variant": "C57U G58C C79U", "polymerase ribozyme fitness (log ratio)": -1.86},
      {"variant": "C57U A115G U144C", "polymerase ribozyme fitness (log ratio)": "≤ -4.2"},
      {"variant": "G58U G84A", "polymerase ribozyme fitness (log ratio)": -0.866},
      {"variant": "C57G C95U U102G", "polymerase ribozyme fitness (log ratio)": -2.74},
      {"variant": "G58C A66G", "polymerase ribozyme fitness (log ratio)": -3.76},
      {"variant": "C57U G86U C96A U109A U146A", "polymerase ribozyme fitness (log ratio)": -2.45},
      {"variant": "G58C G59C", "polymerase ribozyme fitness (log ratio)": 0.523},
      {"variant": "G58A G141C", "polymerase ribozyme fitness (log ratio)": -0.279},
      {"variant": "G58A G141U", "polymerase ribozyme fitness (log ratio)": 0.0168},
      {"variant": "G59A A66C G84A A89U", "polymerase ribozyme fitness (log ratio)": "≤ -4.2"},
      {"variant": "G58A A89U G94U", "polymerase ribozyme fitness (log ratio)": -3.19},
      {"variant": "C57G G59C", "polymerase ribozyme fitness (log ratio)": -0.566},
      {"variant": "C57G G59A", "polymerase ribozyme fitness (log ratio)": -0.436},
      {"variant": "G58A G84A U104G", "polymerase ribozyme fitness (log ratio)": -0.568},
      {"variant": "G58U U135G", "polymerase ribozyme fitness (log ratio)": -3.76},
      {"variant": "C57U G59A C75G A138G", "polymerase ribozyme fitness (log ratio)": -4.02},
      {"variant": "G58A A115C U135C G152U", "polymerase ribozyme fitness (log ratio)": "≤ -4.2"},
      {"variant": "G58A C96G", "polymerase ribozyme fitness (log ratio)": -0.616},
      {"variant": "G58A G80U U151G", "polymerase ribozyme fitness (log ratio)": "≤ -4.2"},
      {"variant": "G58A U61A", "polymerase ribozyme fitness (log ratio)": -0.894},
      {"variant": "G58C C116U", "polymerase ribozyme fitness (log ratio)": 0.354},
      {"variant": "G58C C116G", "polymerase ribozyme fitness (log ratio)": 0.494},
      {"variant": "C57U U78A G84A C95U U135G", "polymerase ribozyme fitness (log ratio)": "≤ -4.2"},
      {"variant": "G59A A73G C93U A106G U144G U146C", "polymerase ribozyme fitness (log ratio)": -0.726},
      {"variant": "C57U G59C G83C", "polymerase ribozyme fitness (log ratio)": -1.17},
      {"variant": "C57U G58C G86A U102A C116A", "polymerase ribozyme fitness (log ratio)": -2.47},
      {"variant": "G58C G71C G92U C96U U145A", "polymerase ribozyme fitness (log ratio)": "≤ -4.2"},
      {"variant": "C57G U82C C95U C125A C131U U135C U146C", "polymerase ribozyme fitness (log ratio)": -3.38},
      {"variant": "G58A G94A U135G U144C", "polymerase ribozyme fitness (log ratio)": -1.98},
      {"variant": "G58A G59U C87U G136A", "polymerase ribozyme fitness (log ratio)": 0.169},
      {"variant": "G58U C96U", "polymerase ribozyme fitness (log ratio)": -0.236},
      {"variant": "G58C C87U U135C", "polymerase ribozyme fitness (log ratio)": -2.22},
      {"variant": "C57G U82A C95G U134C", "polymerase ribozyme fitness (log ratio)": -1.35},
      {"variant": "C57U A73G G74A C114G U135A U151G", "polymerase ribozyme fitness (log ratio)": "≤ -4.2"},
      {"variant": "G58C C93A", "polymerase ribozyme fitness (log ratio)": -2.61},
      {"variant": "C57U A107C", "polymerase ribozyme fitness (log ratio)": -3.3},
      {"variant": "C57U C95A", "polymerase ribozyme fitness (log ratio)": -0.112},
      {"variant": "C57U C69U", "polymerase ribozyme fitness (log ratio)": -0.915},
      {"variant": "C57U C149U", "polymerase ribozyme fitness (log ratio)": -1.28},
      {"variant": "G58U G71A A91U G92A G126A G133U", "polymerase ribozyme fitness (log ratio)": "≤ -4.2"},
      {"variant": "G58C G88U C105A G141C U144G U146G", "polymerase ribozyme fitness (log ratio)": "≤ -4.2"},
      {"variant": "G58U G59C U78A C108G U148A", "polymerase ribozyme fitness (log ratio)": "≤ -4.2"},
      {"variant": "G58A G83A U109C A115U", "polymerase ribozyme fitness (log ratio)": "≤ -4.2"},
      {"variant": "G58U G80U U104G", "polymerase ribozyme fitness (log ratio)": -2.41},
      {"variant": "C57U U61G C76A", "polymerase ribozyme fitness (log ratio)": "≤ -4.2"},
      {"variant": "C57G U82A A91C A115G C125A C149A", "polymerase ribozyme fitness (log ratio)": "≤ -4.2"},
      {"variant": "C57U C95U U101C", "polymerase ribozyme fitness (log ratio)": -0.863},
      {"variant": "G58U U61A U135A", "polymerase ribozyme fitness (log ratio)": -1.67},
      {"variant": "G58C G124C", "polymerase ribozyme fitness (log ratio)": -0.411},
      {"variant": "G58C C75U C95U C99G U135C", "polymerase ribozyme fitness (log ratio)": "≤ -4.2"},
      {"variant": "G58A C69A U82G A120U U134C", "polymerase ribozyme fitness (log ratio)": -1.34},
      {"variant": "C57U U151G", "polymerase ribozyme fitness (log ratio)": -3.63},
      {"variant": "C57U G94U C99A", "polymerase ribozyme fitness (log ratio)": -1.79},
      {"variant": "C57G C93U", "polymerase ribozyme fitness (log ratio)": -1.72}
    ]}
  ]
}
